# Measured values taken from patent US20060241289A1 (RSR, published 2006).
# How the values were obtained:
# [1] = target: TSH receptor coated onto plastic tubes or ELISA plate wells (RSR Ltd) / detergent solubilised TSH receptor; experiment: Scatchard analysis, TSH receptors coated onto plastic tubes
# [2] = target: T1, TSH receptor coated onto plastic tubes or ELISA plate wells (RSR Ltd) / detergent solubilised TSH receptor; experiment: Scatchard analysis, 125I-IgG on TSH receptor coated tubes
# T1 construct: also called TSHR coated tubes; TSH receptor coated tubes
# Description: Unlabelled IgG or Fab in 50 μL of assay buffer and 50 μL of ¹²⁵I-labelled hMAb IgG or Fab (30,000 cpm in assay buffer) were incubated for 2 hours at room temperature with gentle shaking, washed twice with 1 mL of assay buffer and counted in a gamma counter.
Ka [1] [M⁻¹],Ka [2] [M⁻¹],Binder
2e+10,,"9D33 (antibody, V domains shown, Mouse monoclonal IgG; also called 9D33 IgG; mouse monoclonal antibody to the TSHR (9D33)) VH: DVQIQQPGTELVKPGASVRLSCKASGYTFTTYWMHWVKQRPGQGLEWIGEIDPSDSYTNYNQKFKGKATLTVDKSSSTAYMHLSSLTSEDSAVYYCSRNYGSGYYFDYWGQGTTLTVSS VL: GVEMTQSPAIMSASPGEKVTMTCSASSSVSYMHWYQQKSGTSPKRWIYDTSKLASGVPARFSGSGSGTSYSLTISSMETEDAATYYCQQWSSNPWTFGGGTKLEIK"
,5e+10,"hMAb TSHR1 IgG (antibody, V domains shown, also called human monoclonal TSH receptor autoantibody; TSMAb TSHR1 IgG) VH: QVQLVQSGAEVKKPGESLKISCRGSGYRFTSYWINWVRQLPGKGLEWMGRIDPTDSYTNYSPSFKGHVTVSADKSINTAYLQWSSLKASDTGMYYCARLEPGYSSTWSVNWGQGTLVTVSS VL: LTVLTQPPSVSGAPRQRVTISCSGNSSNIGNNAVNWYQQLPGKAPKLLIYYDDQLPSGVSDRFSGSRSGTSASLAIRGLQSEDEADYYCTSWDDSLDSQLFGGGTRLTVLG"
